Test results reported in article PMC6212786.

Key:
Assay in all cases: fluorescence anisotropy
[1] = target: T1, T4 DNA ligase (gp30), full-length wild type (Bacteriophage T4 (ATCC), UniProt P00970 1-487)
T1 sequence: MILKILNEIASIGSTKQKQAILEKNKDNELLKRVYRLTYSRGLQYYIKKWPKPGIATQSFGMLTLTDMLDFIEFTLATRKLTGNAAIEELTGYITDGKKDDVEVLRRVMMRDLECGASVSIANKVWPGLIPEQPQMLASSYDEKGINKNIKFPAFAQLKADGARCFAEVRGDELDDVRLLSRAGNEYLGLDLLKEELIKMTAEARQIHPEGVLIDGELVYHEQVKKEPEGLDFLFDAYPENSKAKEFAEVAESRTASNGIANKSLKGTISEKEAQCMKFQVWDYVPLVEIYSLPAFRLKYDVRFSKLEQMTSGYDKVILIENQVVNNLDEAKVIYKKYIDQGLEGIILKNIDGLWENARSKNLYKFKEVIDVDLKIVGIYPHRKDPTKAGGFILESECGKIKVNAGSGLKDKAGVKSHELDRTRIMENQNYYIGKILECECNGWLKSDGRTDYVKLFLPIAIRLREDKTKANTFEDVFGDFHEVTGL

[2] = target: Human DNA ligase 1 (hLig1) (human, UniProt P18858 233-919)
[3] = target: T2, T4 DNA ligase DBD fragment (Bacteriophage T4 (ATCC), UniProt P00970 1-129)
T2 sequence: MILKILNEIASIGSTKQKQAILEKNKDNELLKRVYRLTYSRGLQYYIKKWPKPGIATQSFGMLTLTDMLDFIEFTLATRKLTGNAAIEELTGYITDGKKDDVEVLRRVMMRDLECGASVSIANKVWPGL

[4] = target: T3, T4 DNA ligase NTase-OB fragment (2CT) (Bacteriophage T4 (ATCC), UniProt P00970 136-487)
T3 sequence: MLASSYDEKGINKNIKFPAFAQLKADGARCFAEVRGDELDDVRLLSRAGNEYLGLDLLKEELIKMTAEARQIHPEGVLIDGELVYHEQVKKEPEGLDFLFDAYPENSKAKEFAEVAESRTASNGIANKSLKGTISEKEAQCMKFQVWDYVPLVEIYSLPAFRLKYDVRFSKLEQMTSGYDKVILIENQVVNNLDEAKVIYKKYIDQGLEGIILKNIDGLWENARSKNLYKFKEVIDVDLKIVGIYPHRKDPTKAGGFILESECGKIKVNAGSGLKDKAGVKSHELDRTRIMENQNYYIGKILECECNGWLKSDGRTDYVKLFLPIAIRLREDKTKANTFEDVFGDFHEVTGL

Sequence of Human DNA ligase 1 (hLig1) (P18858 233-919): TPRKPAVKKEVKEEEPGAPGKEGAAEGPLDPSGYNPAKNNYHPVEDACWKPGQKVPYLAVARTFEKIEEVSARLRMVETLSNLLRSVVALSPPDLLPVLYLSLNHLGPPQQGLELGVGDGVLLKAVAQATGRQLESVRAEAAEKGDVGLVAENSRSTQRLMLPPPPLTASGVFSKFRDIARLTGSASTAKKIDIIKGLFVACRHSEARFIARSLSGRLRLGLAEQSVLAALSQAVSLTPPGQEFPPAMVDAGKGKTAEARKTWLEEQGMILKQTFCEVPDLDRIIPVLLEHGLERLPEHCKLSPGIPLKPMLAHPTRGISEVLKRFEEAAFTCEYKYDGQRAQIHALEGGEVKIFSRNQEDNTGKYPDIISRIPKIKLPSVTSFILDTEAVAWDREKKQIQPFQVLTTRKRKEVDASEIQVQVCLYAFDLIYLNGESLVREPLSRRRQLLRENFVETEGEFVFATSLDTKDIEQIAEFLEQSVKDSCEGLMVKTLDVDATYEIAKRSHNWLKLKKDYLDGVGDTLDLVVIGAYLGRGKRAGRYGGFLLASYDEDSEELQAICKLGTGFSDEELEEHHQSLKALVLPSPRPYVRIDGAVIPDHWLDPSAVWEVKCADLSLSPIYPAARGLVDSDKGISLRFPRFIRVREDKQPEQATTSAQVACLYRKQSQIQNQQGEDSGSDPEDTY

B1: nicked 32-bp dsDNA probe (dsDNA)
DNA 1: GGTAGCCACAGCCAGTCAGCCGATTGCGGGAC
DNA 2: GTCCCGCAATCGGCTG
DNA 3: ACTGGCTGTGGCTACC
modifications: 5'-phosphate on S6 at the nick
B1 showed a Kd [1] of 6.3 µM, a Kd [2] of 7.7 µM and a Kd [3] of 138 µM. It also gave a Kd [4] of 23 µM.

B2: intact (unnicked) 32-bp dsDNA probe (dsDNA)
DNA 1: B1 DNA 1
DNA 2: GTCCCGCAATCGGCTGACTGGCTGTGGCTACC
B2 gave a Kd [1] of 6.6 µM, a Kd [2] of 11 µM and a Kd [3] of 119 µM. For the same binder, the Kd [4] was 17 µM.
